Our source for the Immunoreactivity (%), Cell binding, Immunoreactivity (%), ELISA and Immunoreactivity (from ID50 against unmodified control F(ab')2) values is patent US6953675.

For test [1], the target named is antigen of LL2 (not named; LL2 is called an anti-B-cell monoclonal antibody). The experiment in a line: cell binding assay, calculated from the ID50 values; cells not named.
A further test has as its target WN. The experiment in a line: competitive binding ELISA with WN as the surrogate Ag, from ID50 values. On the technique in general: ELISA stands for enzyme-linked immunosorbent assay.
For test [2], the target named is antigen of LL2 (not named; LL2 is called an anti-B-cell monoclonal antibody). The experiment in a line: competitive binding assay; format and target not stated.
For test [3], the target named is antigen of hMN14 (not named). The description is as above.

“LL2 F(ab')2, non-conjugated (murine mAb, naturally glycosylated in the V domain) (antibody)”: the Immunoreactivity (%), Cell binding in test [1] was 100%. Besides, in the test with WN, the Immunoreactivity (%), ELISA turned out to be 100%.

The substance “mLL2 F(ab')2, DTPA conjugated at random lysines (4.3 chelators/F(ab')2) (antibody)” gave an Immunoreactivity (from ID50 against unmodified control F(ab')2) in test [2] of 21%.

For “LL2 F(ab')2, DOX-dextran conjugated (5.1 DOX/F(ab')2) (antibody)”, the Immunoreactivity (%), Cell binding in test [1] is 41.9%. The substance further came in with an Immunoreactivity (%), ELISA in the test with WN of 42.2%.

Regarding “mLL2 F(ab')2, LC-DTPA conjugated at the Vk-CHO (4.6 chelators/F(ab')2) (antibody)”, in test [2], the Immunoreactivity (from ID50 against unmodified control F(ab')2) came to 100%.

“mLL2 F(ab')2, DTPA conjugated at random lysines (2.2 chelators/F(ab')2) (antibody)”: in test [2], the Immunoreactivity (from ID50 against unmodified control F(ab')2) was 75%.

“hMN14 F(ab')2 with the grafted LL2 Vk glycosylation site, LC-DTPA conjugated at the Vk-CHO (2.1 chelators/F(ab')2) (antibody)” came in with an Immunoreactivity (from ID50 against unmodified control F(ab')2) in test [3] of 100%.

In the case of “mLL2 F(ab')2, DTPA conjugated at the Vk-CHO (5.5 chelators/F(ab')2) (antibody)”, the Immunoreactivity (from ID50 against unmodified control F(ab')2) in test [2] was 100%.
